The target of test [1] is T1, recombinant soluble MD-2 purified from baculovirus-infected insect cell supernatants (UniProt Q9Y6Y9 19-160).
T1 construct: Expressed in Sf9 cells, purified on NiNTA, coated at 5 ug/ml in the direct ELISA; not shown: C-terminal FLAG and 6xHIS tags
T1 sequence (looked up): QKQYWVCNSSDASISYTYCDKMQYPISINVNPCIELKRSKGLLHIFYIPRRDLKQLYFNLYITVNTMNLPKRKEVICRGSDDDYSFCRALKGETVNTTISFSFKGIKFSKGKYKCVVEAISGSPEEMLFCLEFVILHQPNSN
Description: direct ELISA, MD-2 coated at 5 ug/ml. As for the experimental part:
Recombinant soluble MD-2 with C terminal FLAG and histidine epitope tags was coated at a concentration of 5 μg/ml in 50 μl PBS on ELISA plates (Nunc Maxisorp). Wells were blocked with 200 μl PBS 2% BSA and subsequently incubated with the appropriate MAb at the indicated concentration in PBS 1% BSA. Following 3 wash steps with PBS 0.05% Tween 20, 50 μl HRP conjugated goat anti-mouse IgG (H+L) at a 1:5000 dilution was added to the wells. […] Plates were read at a wavelength of 650 nm.
Using direct ELISA, no binding of 18H10 to recombinant soluble MD-2 generated with the baculovirus expression system was detected (FIG. 5a).
A general note: An ELISA detects its analyte on a solid surface through an enzyme-linked reagent.

Test [2] deals with T2, human TLR4 and human MD-2 on transiently transfected HEK 293 cells (human, UniProt O00206 24-839; Q9Y6Y9 19-160).
T2 construct: whole, on cells; also called human TLR4/MD-2 complex
T2 sequence (O00206 24-839, one chain of several): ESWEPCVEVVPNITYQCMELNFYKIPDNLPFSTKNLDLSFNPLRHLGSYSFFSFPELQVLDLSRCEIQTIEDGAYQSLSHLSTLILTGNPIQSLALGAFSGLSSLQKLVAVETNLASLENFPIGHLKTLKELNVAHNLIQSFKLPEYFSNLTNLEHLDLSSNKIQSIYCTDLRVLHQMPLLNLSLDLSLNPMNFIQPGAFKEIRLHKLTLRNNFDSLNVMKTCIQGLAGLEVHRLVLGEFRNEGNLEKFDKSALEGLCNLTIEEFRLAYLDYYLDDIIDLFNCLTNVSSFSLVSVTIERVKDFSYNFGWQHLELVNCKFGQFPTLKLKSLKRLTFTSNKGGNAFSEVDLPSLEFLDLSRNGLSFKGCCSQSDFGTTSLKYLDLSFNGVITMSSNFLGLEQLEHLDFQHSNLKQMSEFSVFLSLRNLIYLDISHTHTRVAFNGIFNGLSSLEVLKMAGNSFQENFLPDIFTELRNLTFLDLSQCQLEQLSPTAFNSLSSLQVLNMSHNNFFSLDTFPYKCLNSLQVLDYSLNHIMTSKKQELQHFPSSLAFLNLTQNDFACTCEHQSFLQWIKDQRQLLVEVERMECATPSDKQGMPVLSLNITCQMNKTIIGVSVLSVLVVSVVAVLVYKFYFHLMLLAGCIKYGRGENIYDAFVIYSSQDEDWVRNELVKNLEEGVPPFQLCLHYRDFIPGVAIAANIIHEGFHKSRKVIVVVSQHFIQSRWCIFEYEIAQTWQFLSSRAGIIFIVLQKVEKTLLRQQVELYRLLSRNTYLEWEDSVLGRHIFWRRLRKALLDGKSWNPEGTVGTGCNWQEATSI
Nature of the test: FACS on transiently transfected HEK 293 cells. Here is the method:
FIGS. 4A-4L are a series of graphs depicting the specificity of the 18H10 monoclonal antibody for MD-2. The specificity of the 18H10 antibody is shown by flow cytometry analysis of HEK 293 cells transiently transfected with either human TLR4 and human MD-2 (FIG. 4A, FIG. 4E and FIG. 4I); rabbit TLR4 and rabbit MD-2 (FIG. 4B, FIG. 4F and FIG. 4J); human TLR4 and rabbit MD-2 (FIG. 4C, FIG. 4G and FIG. 4K); or rabbit TLR4 and human MD-2 (FIG. 4D, FIG. 4H and FIG. 4L). Cells were incubated with either α-FLAG™ antibody (to detect TLR4 expression); α-C-myc antibody (to detect MD-2 expression) or the 18H10 monoclonal antibody, followed by an APC-coupled α-mouse (H+L) antibody.
FIGS. 12A-12L is a series of graphs depicting the specificity of the 16G7 monoclonal antibody for TLR4. […]
HEK 293 cells were plated in 6 well plates at a density of 2.5×10⁵ cells/well in 2 ml culture medium containing 10% FBS. […] 48 hours post-transfection, cells were stained with the appropriate monoclonal antibody (as indicated in FIGS. 4A-4L) and an APC-coupled goat anti-mouse IgG (H+L) antibody (Molecular Probes) and analyzed using the FACScalibur in the FL-4 channel.

Test [3] has as its target T3, human TLR4 alone in transfected HEK 293 cells (human, UniProt O00206 24-839).
T3 construct: whole, on cells; also called TLR4 alone in transfected cell lysates
Nature of the test: sandwich ELISA, capture on anti-FLAG M2, biotinylated 18H10. As for the experimental part: (§1) For sample preparation, HEK 293 cells were transfected with the appropriate plasmid constructs using the Fugene 6™ transfection reagent as described in paragraph G above. 48 hours post-transfection, cells were collected and cleared by centrifugation. Cells were subsequently incubated with biotinylated 18H10 (10 μg/ml) and lysed in 20 mM Tris pH 7.4, 150 mM NaCl, 1% NP40 containing COMPLETE™ protease inhibitors (Roche).
(§2) To perform the sandwich ELISA, Nunc maxisorp plate wells were coated with 50 μl of the anti-FLAG™ M2 MAb (Sigma) at a concentration of 5 μg/ml in PBS. Wells were blocked with 200 μl PBS 2% BSA and subsequently incubated with 50 μl of the appropriate samples at the indicated dilution. Wells were washed three times with 200 μl PBS 0.05% Tween 20 and incubated with 50 μl of the appropriate antibody (10 μg/ml for biotinylated 18H10 and 12D4, 1 μg/ml for the polyclonal anti-MD-2 […]). Following a wash step as above, wells were incubated with 50 μl of the appropriate detection antibody (HRP conjugated streptavidin at a dilution of 1:1500 for the biotinylated MAbs and HRP conjugated anti-rabbit IgG (H+L) at a dilution of 1:5000 for the polyclonal rabbit Ab). […] Plates were read at a wavelength of 650 nm.

Test [4] addresses T4, MD-2 alone in transfected HEK 293 cell lysates/supernatants (UniProt Q9Y6Y9 19-160, limits assumed).
T4 construct: not shown: C-terminal FLAG and 6x Histidine tags
T4 sequence (looked up): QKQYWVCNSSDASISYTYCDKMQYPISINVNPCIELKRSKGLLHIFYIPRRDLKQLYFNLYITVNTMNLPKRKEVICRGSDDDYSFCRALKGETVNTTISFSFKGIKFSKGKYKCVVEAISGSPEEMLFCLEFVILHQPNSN
Described as above. Here is the method: as §1, §2

Test [5] addresses T5, human TLR4/MD-2 complex on the surface of transfected CHO cells (human, UniProt O00206 24-839; Q9Y6Y9 19-160).
T5 construct: whole, on cells; also called TLR4/MD-2 transfected CHO cells; hTLR4/MD-2 transfected CHO cells
Nature of the test: flow cytometry, mock transfected vs. TLR4/MD-2 transfected cells. Background: In flow cytometry, cells or beads pass a laser one at a time.

The target of test [6] is T6, human TLR4/MD-2 complex in transfected HEK 293 cells (FLAG-TLR4 with MD-2-FLAG-6xHis) (human, UniProt O00206 24-839; Q9Y6Y9 19-160).
T6 construct: whole, on cells; also called TLR4/MD-2 transfected HEK 293 cells; hTLR4/MD-2 transfected HEK 293 cells
T6 sequence (O00206 24-839, one chain of several): as the sequence (O00206 24-839, one chain of several) above
Nature of the test: sandwich ELISA, capture on anti-FLAG M2, biotinylated 18H10 with streptavidin-HRP. As for the experimental part:
as §1, §2

T5 sequence (O00206 24-839, one chain of several): as the sequence (O00206 24-839, one chain of several) above
T3 sequence (O00206 24-839): as the sequence (O00206 24-839, one chain of several) above

B1: 18H10 monoclonal antibody (antibody, IgG2b, V domains shown)
VH: QVQLQQSGADLVRPGALVKLSCTASGFNIKDSYIHWVKKRPEWGLEWIGWTDPENVNSIYDPRFQGKASITADTSSNTAFLQLTSLTSEDTAVYYCARGYNGVYYAMDYWGQGTTVTVSS
VL: QIVLTQSPSIMSASLGEEITLTCSASSSVIYMHWYQQKSGTSPKLLIYRTYNLASGVPSRFSGSGSGTFYSLTISSVEAEDAADYYCHQWSSFPYTFGGGTKLEIKR
notes: also called 18H10 MAb; 18H10 mouse MAb
Turning to B1, the binding result is recorded as “no binding” in test [1]; “binds” in test [2]; “no binding (tested: 10 µg/ml biotinylated 18H10)” in test [3]; “no binding (tested: 10 µg/ml biotinylated 18H10)” in test [4]; “binds” in test [5]; “binds” in test [6].

Values taken from patent publication US20180282426A1 (NOVIMMUNE S A, published 2018).
